In paper PMC4132890:
pKd: −log10 of the molar value.

Target: ryanodine receptors (rat (endogenous in rat ventricular myocytes)) (UniProt B0LPN4)
Assay: fluorescence wash-in and wash-out in permeabilized myocytes

Chain of UniProt B0LPN4 (B0LPN4 whole entry): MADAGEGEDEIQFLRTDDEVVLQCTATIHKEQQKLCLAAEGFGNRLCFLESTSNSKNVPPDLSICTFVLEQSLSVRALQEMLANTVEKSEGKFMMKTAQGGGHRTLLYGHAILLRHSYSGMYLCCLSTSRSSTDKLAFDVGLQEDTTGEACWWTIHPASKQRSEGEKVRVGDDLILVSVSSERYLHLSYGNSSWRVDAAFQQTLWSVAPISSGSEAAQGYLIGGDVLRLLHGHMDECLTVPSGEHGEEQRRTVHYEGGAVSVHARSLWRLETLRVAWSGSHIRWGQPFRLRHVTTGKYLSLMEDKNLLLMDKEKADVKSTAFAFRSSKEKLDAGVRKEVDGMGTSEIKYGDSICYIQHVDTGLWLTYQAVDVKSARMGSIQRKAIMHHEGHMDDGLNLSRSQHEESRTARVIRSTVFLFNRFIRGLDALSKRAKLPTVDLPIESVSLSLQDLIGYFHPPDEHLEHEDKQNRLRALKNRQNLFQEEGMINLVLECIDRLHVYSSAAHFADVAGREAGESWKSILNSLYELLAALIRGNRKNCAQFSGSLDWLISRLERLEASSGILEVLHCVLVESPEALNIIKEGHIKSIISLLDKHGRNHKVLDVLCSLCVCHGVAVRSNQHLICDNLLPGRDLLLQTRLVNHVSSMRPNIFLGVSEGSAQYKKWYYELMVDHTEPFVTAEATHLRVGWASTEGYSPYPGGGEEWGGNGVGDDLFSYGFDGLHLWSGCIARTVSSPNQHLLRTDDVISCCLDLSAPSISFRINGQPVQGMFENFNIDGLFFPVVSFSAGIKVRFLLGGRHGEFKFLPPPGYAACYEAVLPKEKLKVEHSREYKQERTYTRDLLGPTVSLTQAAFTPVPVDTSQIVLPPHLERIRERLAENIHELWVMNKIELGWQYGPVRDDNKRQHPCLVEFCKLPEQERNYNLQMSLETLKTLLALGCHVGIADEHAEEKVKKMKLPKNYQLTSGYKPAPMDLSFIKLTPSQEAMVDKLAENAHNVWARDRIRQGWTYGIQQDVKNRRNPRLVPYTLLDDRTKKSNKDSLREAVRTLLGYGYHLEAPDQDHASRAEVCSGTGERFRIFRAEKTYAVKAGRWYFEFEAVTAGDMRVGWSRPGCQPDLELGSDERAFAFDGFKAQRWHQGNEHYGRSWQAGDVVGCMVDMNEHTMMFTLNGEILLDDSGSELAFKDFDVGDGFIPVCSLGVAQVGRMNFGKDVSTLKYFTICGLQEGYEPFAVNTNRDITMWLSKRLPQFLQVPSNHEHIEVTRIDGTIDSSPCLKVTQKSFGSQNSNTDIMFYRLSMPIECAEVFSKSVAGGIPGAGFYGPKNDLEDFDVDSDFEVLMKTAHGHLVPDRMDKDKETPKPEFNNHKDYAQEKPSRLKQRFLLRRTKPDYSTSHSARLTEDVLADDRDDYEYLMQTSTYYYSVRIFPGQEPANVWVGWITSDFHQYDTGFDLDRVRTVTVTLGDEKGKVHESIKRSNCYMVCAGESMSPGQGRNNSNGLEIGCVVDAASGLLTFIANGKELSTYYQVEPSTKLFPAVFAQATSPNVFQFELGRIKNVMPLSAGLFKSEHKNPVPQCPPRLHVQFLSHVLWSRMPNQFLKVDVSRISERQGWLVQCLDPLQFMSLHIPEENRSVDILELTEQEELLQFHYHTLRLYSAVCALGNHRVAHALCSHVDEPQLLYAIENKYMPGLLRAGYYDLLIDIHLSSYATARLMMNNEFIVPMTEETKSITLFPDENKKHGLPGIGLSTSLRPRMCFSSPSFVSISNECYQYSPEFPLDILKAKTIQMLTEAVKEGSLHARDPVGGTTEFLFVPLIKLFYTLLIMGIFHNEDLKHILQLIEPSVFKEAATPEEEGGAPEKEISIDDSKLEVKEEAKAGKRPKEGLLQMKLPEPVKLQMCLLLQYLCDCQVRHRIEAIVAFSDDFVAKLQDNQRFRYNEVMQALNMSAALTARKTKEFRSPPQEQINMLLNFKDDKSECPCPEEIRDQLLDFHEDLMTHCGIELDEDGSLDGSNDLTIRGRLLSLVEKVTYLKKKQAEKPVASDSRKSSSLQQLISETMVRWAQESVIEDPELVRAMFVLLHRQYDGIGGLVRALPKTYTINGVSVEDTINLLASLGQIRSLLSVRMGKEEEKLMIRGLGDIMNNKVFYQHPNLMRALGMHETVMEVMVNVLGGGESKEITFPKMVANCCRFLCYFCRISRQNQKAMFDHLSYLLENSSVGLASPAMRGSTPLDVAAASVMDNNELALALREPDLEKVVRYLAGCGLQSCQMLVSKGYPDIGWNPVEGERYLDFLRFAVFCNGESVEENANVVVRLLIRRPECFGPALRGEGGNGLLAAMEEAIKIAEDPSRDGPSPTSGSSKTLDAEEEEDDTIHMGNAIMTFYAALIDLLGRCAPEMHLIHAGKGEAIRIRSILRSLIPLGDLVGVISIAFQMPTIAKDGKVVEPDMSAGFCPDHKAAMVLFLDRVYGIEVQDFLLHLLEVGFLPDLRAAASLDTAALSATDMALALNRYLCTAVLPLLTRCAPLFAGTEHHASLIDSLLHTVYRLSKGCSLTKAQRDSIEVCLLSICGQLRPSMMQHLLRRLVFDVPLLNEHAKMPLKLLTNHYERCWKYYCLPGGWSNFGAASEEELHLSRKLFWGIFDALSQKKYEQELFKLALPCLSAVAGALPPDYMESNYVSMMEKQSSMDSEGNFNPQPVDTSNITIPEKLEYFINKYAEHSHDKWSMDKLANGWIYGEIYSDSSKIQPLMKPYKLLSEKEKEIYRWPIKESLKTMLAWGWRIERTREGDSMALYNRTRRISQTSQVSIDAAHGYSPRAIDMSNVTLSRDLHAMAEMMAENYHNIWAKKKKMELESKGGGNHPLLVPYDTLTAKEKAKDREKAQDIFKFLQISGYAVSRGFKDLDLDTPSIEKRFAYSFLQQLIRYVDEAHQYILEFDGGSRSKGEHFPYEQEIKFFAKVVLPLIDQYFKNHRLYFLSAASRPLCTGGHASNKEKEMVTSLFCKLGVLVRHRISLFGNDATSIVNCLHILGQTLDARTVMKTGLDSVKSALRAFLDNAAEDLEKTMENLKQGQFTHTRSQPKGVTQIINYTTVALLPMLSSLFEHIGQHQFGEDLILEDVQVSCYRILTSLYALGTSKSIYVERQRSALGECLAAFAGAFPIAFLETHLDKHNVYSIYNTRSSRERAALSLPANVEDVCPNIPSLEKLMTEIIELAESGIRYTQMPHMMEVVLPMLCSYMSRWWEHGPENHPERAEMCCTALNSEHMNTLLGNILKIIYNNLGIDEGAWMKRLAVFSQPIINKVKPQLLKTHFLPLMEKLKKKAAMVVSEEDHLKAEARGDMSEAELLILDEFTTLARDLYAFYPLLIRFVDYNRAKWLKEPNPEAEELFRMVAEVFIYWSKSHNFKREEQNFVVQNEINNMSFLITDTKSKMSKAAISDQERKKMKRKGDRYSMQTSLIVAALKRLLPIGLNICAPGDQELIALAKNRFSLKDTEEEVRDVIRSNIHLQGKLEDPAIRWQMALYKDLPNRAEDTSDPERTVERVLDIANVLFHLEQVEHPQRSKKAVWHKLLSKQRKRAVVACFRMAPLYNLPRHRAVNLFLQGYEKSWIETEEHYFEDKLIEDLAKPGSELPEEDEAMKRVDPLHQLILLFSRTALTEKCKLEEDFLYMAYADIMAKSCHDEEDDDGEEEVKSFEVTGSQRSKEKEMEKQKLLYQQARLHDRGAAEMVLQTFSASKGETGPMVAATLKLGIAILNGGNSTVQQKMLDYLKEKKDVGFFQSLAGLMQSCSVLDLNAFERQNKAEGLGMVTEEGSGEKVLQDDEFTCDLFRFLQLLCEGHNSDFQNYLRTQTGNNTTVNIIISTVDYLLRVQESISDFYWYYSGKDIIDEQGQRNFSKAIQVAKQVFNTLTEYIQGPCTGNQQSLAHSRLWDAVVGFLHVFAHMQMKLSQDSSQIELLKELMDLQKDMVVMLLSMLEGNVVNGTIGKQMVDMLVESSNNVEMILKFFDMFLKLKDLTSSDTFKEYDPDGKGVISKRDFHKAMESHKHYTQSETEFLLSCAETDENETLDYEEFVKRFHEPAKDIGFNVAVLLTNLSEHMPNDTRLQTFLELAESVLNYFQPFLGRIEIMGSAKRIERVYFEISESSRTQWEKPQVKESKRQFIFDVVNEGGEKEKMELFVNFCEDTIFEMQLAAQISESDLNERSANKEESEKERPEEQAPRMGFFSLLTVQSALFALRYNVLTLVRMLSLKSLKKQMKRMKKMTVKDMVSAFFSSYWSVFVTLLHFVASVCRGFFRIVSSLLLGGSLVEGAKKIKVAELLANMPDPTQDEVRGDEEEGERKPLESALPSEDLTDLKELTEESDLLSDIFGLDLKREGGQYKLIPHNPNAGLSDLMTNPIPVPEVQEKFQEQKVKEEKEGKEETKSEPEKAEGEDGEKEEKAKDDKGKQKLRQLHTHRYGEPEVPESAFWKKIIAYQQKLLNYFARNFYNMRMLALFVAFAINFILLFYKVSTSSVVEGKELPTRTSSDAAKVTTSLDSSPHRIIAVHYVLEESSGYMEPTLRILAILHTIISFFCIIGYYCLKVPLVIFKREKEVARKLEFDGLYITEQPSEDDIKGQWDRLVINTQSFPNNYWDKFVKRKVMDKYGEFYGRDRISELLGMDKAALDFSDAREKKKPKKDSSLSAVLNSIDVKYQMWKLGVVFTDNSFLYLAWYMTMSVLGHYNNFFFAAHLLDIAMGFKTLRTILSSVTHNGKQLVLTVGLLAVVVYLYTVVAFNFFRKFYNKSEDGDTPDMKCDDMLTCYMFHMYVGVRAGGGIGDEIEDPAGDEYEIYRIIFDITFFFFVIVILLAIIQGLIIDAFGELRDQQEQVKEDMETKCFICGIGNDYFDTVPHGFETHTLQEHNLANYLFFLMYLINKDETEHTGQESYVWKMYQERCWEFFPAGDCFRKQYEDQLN

GCaMP2.2-FKBP12.6
pKd: 7.81

GCaMP2.2Low-FKBP12.6
pKd: 7.36
